According to patent publication US20240368574A1 (BELLICUM PHARMACEUTICALS, published 2024):

Biological target: four tandem FKBP12 domains expressed from pBP0722 pSH1-Fpk-Fpk'.LS.Fpk''.Fpk'''.LS.HA
Assay: cell-based or functional assay

IC50 of rapamycin or C7-isopropoxy-rapamycin (the small-molecule heterodimerizer, not of a protein) for loss of SRα-SEAP reporter activity in transfected 293 cells: ~3 nM
B1: FRBL-ΔCaspase-9 expressed from pBP0463 pSH1-FRBL.dCaspase9.T2A (other)
chain: EMWHEGLEEASRLYFGERNVKGMFEVLEPLHAMMERGPQTLKETSFNQAYGRDLMEAQEWCRKYMKSGNVKDLLQAWDLYYHVFRRISKSGGGSGVDDGFGDVGALESLRGNADLAYILSMEPCGHCLIINNVNFCRESGLRTRTGSNIDCEKLRRRFSSLHFMVEVKGDLTAKKMVLALLELARQDHGALDCCVVVILSHGCQASHLQFPGAVYGTDGCPVSVEKIVNIFNGTSCPSLGGKPKLFFIQACGGEQKDHGFEVASTSPEDESPGSNPEPDATPFQEGLRTFDQLDAISSLPTPSDIFVSYSTFPGFVSWRDPKSGSWYVETLDDIFEQWAHSEDLQSLLLRVANAVSVKGIYKQMPGCFNFLRKKLFFKTSASRAEGRGSLLTCGDVEENPGP
